Consider four molecules from patent US20230167179A1 (CENTRE NATIONAL DE LA RECHERCHE SCIENTIFIQUE, published 2023).

One may read the Kd as the free concentration of one partner at which half of the binding sites on the other are occupied at equilibrium, for simple one-to-one binding. For orientation: koff means the first-order rate constant of dissociation. One may read the kon as a measure of how fast the partners come together.

The target of assay [1] is recombinant IL-1RA (Homo sapiens (Human)) (UniProt P18510). Put plainly: Octet BLI, comparison of KD. Background: Biolayer interferometry detects binding as a change in optical thickness at a sensor tip.
Assay [2] shares this target. Briefly: Octet BLI, biotinylated antibody on streptavidin biosensor, IL-1RA at 50 nM.
Assay [3] has the same target. Put plainly: Octet BLI, biotinylated antibody on streptavidin biosensor, IL-1RA at 14.8 nM.
For assay [4] the target is unchanged. Briefly: Octet BLI, biotinylated antibody on streptavidin biosensor, IL-1RA at 22.2 nM.
Assay [5] has the same target. Briefly: Octet BLI, biotinylated antibody on streptavidin biosensor, IL-1RA at 33.3 nM.
For assay [6] the target is unchanged. Briefly: Octet BLI, biotinylated antibody on streptavidin biosensor, IL-1RA at 9.87 nM.
Assay [7] has the same target. Briefly: Octet BLI, biotinylated antibody on streptavidin biosensor, IL-1RA in solution, 1:1 fit.
Assay [8] addresses T1, recombinant IL-1RA (Homo sapiens (Human), UniProt P18510 26-177).
T1 construct: also called IL-1RA antigen; IL-RA
Briefly: Octet BLI, biotinylated antibody on streptavidin biosensor, IL-1RA at 2.37 nM. The protocol: (§1) This antigen was tested at 12 nM at the first point, then diluted 1.5 times on 6 points for the first 4 antibodies.

In assay [9] the target is T1, recombinant IL-1RA. Briefly: Octet BLI, biotinylated antibody on streptavidin biosensor, IL-1RA at 3.55 nM. The method, then:
as §1

Assay [10] deals with T1, recombinant IL-1RA. Briefly: Octet BLI, biotinylated antibody on streptavidin biosensor, IL-1RA at 5.33 nM. The method, then:
as §1

The target of assay [11] is T1, recombinant IL-1RA. Put plainly: Octet BLI, biotinylated antibody on streptavidin biosensor, IL-1RA in solution, 1:1 fit over 4 concentrations. The protocol: as §1
For each antibody, 4 concentrations were used to calculate the KD. The constant KD is related to the rate of complex formation (described by the rate constant of association, kon) and the rate of dissociation (described by the rate constant of dissociation, kdis), with KD=kdis/kon. A high affinity interaction is characterized by a low KD, rapid recognition (high kon) and stability of the complexes formed (low kdis). The R2 makes it possible to estimate the reliability of the results obtained (the closer it is to 1, the more reliable the results).

T1 sequence (P18510 26-177): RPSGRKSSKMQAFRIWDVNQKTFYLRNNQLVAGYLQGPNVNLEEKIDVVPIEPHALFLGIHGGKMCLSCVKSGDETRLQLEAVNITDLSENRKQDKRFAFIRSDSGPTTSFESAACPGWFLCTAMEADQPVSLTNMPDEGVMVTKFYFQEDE
Chain of recombinant IL-1RA (Homo sapiens (Human)) (P18510 26-177): as above

For “anti-IL-1RA antibody MAB280 from R&D Systems”, the fold lower affinity than the antibodies selected in examples 2, 3 in assay [1] was > 10 times. Also, the Response in [2] came out at 0.151; in assay [3], 0.0761; in assay [4] it was 0.105; in assay [5] it was 0.121; in [6], 0.0638. For the same molecule, in [7], the Kd came out at 50.8 nM. The koff in [7] was 0.00718 s⁻¹. In assay [7], the kon stood at 142000 M⁻¹ s⁻¹.

B1: 908.9G5B9 (antibody, V domains shown)
VH: EVQLQQSGAELVKPGASVKLSCTVSGFNITDTYIHWVKQRPEKGLEWIGRIDPANGNTKYDPKLQGKATITADTSSNTAYLQLSSLTSEDTAVYYCARDGTYVYYAMDYWGQGTSVTVSS
VL: DIQMTQSPASLSASVGETVTITCRASENIFIYLAWYQQKQGKSPQLLVYNAKTLAEGVPSRFSGSGSGTQFSLKINSLLPEDFGSYYCQHHYGIPFTFGSGTKLEIE
notes: Biotinylated in the Octet assay; fixed (capture) antibody in the sandwich ELISAs
On to B1, for which the Response in assay [8] is 0.092. Also, the Response in assay [9] worked out at 0.132. Further, the Response in assay [10] worked out at 0.2. Further, in [11], the equilibrium dissociation constant (Kd) turned out to be 3.84 nM, the koff was 0.00131 s⁻¹ and the kon was 342000 M⁻¹ s⁻¹.

B2: 908.10E12C1 (antibody, IgG1, V domains shown)
VH: EVQLQQSGPELVKPGASVKISCKTSGYTFTEYTMHWVKQSHGKSLEWIGSINPNNGGTNYNQKFKGKATLTVDKSSNTAYMELRSLTSGDSAVYYCARTLYYAMDYWGQGTSVTVSS
VL: DIVMTQSPSSLAMSVGQKVTMSCKSSQSLLNSSNQKNYLAWYQQKPRQSPKLLVYFASTRDSGVPDRFLGSGSGTDFTLTINRVQAEDLADYFCQQHYILPPTFGAGTKLELK
On to B2, for which the Response in assay [8] was determined as 0.107; in [9], 0.15; in [10] it was 0.21. Also, the Kd in assay [11] came to 1.76 nM. In assay [11], the koff was 0.000464 s⁻¹. For the same molecule, in [11], the kon is 264000 M⁻¹ s⁻¹.

B3: 908.9E11B6 (antibody, IgG1, V domains shown)
VH: QVQLKESGPGLVAPSQSLSITCTVSGFSLTSYGVHWVRQPPGKGLEWLGVIWAGGVTHYNSALMSRLNISKDNSQSQVFLKMNSLRTDDTAMYYCARGGALLRSHFDYWGQGTTLTVSS
VL: QAVVTQESALTTSPGETVTLTCRSSTGAVTTSNYANWVQEKPDHLFTGLIGGTNNRAPGVPARFSGSLIGDKAALTITGAQTEDEAIYHCALWYSNLWVFGGRTKLTVL
As for B3, the results for the Response in [8], in [9] and in [10] were 0.101, 0.154 and 0.229, respectively. The Kd in [11] came to 4.86 nM. For the same molecule, the koff in assay [11] was determined as 0.000865 s⁻¹. In assay [11], the kon turned out to be 178000 M⁻¹ s⁻¹.
